Target: T1, PDZ3 (the third PDZ domain of the neuronal signaling protein PSD-95/SAP90, residue 303-395) (UniProt P31016 303-395)
T1 construct: third PDZ domain of PSD-95/SAP90, residues 303-395; 15N-labelled for the NMR titration; also called PDZ3^303-395
Experiment: NMR titration; 2D 1H-15N HSQC of 15N-labelled PDZ3 303-395 (20 uM) titrated with CRIPT peptide 0-100 uM; 308 K; 20 mM sodium phosphate, 50 mM NaCl, pH 7.0; no osmolyte; single-site fit of 12 backbone amides, averaged
Settings: both partners purified

T1 sequence (P31016 303-395): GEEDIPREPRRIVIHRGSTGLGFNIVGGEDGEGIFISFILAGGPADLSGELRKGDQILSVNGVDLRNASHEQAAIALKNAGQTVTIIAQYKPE

Kd: ~13 µM
B1: C-terminal peptide from CRIPT (Ac-TKNYKQTSV-COOH) (peptide)
peptide: Ac-TKNYKQTSV-OH
notes: C-terminal nine residues of CRIPT; also called CRIPT peptide; source: synthetic peptide (APeptide Co. Ltd, Shanghai, China)

From article PMC7511342, “Polyol and sugar osmolytes can shorten protein hydrogen bonds to modulate function” (Communications Biology, 2020)
